Test results as given in paper PMC11046454.

Key:
[1] = tested on: anti-FITC CAR (E2 scFv, CD8a hinge/TM, 4-1BB, CD3zeta) on CAR-J Jurkat or CAR-T cells (synthetic construct); test: flow cytometry, CAR-J cells; details: via FITC; Cells 1e6/mL in DPBS, 1% FBS, 5 mM MgCl2, 4 C, 30 min; flow cytometry (pH 6.5 or 7.4 for i-motif; 1 mM ATP where stated)
[2] = tested on: anti-FITC CAR (E2 scFv, CD8a hinge/TM, 4-1BB, CD3zeta) on CAR-J Jurkat or CAR-T cells (synthetic construct); test: flow cytometry, CAR-T cells; details: via FITC; Cells 1e6/mL in DPBS, 1% FBS, 5 mM MgCl2, 4 C, 30 min; flow cytometry (pH 6.5 or 7.4 for i-motif; 1 mM ATP where stated)

Row | Sequence | Kd [1] [nM] | binding signal (fold vs ssDNA) [2]
1 | TTTTTTTTTTTTTTTTTTTTTTTTTTTTTTTTTTTTTTTT [FITC-DNA-Cy5] | 26.4 | –
2 | ACATTCCTAAGTCTGAAACATTACAGCTTGCTACACGAGAAGAGCCGCCATAGTA / TTTATCACCAGGCAGTTGACAGTGTAGCAAGCTGTAATAGATGCGAGGGTCCAATAC / TTTCAACTGCCTGGTGATAAAACGACACTACGTGGGAATCTACTATGGCGGCTCTTC / TTTTCAGACTTAGGAATGTGCTTCCCACGTAGTGTCGTTTGTATTGGACCCTCGCAT [FITC-TDN-Cy5] | – | 3
